{"source": "paper PMC5103873", "key": {"[1]": {"target": "arrestin3", "assay": "BRET, arrestin3–Rluc / PTH1R–eYFP", "details": "reference: wild type"}, "[2]": {"target": "arrestin3", "assay": "dual-color FRAP of arrestin3–CFP", "details": "reference: wild type"}, "[3]": {"target": "PTH1R PD3 mutant (mutations of clusters 1 and 2 combined), HA- and eYFP-tagged (human) (UniProt Q03431)"}, "[4]": {"target": "parathyroid hormone receptor 1 (PTH1R) wild type, N-terminally HA-tagged, C-terminally eYFP-labelled (human) (UniProt Q03431)"}, "[5]": {"target": "arrestin3", "assay": "single-cell FRET, PTH1R–eYFP / arrestin3–CFP"}, "[6]": {"details": "sites S489,S491,S492,S493,S495,S501,T503,S504,T506"}}, "data": [{"substance": "PTH1R (parathyroid hormone receptor 1) (from UniProt Q03431) PD3 (clusters 1 and 2 S/T to Ala)", "values": [{"measurement": "percent of reference (% of WT maximum BRET)", "setting": "[1]; [6]", "result": 46.6}, {"measurement": "other: arrestin3 recovery after photobleaching", "setting": "[2]; [6]", "result": "weaker; reference 19.07 ± 0.68–23.94 ± 0.86"}]}, {"substance": "PTH(1–34) (peptide)", "values": [{"measurement": "pEC50 of PTH(1–34) for cAMP accumulation (HTRF) in HEK293 cells transfected with HA–PTH1R PD3 (without YFP), 15 min, 100 µM IBMX", "setting": "[3]", "result": 11.3}, {"measurement": "pEC50 of PTH(1–34) for cAMP accumulation (HTRF) in HEK293 cells transfected with HA–PTH1R WT (without YFP), 15 min, 100 µM IBMX", "setting": "[4]", "result": 10.9}]}, {"substance": "PTH1R (parathyroid hormone receptor 1) (from UniProt Q03431) 100 nM PTH(1–34)", "values": [{"measurement": "other: increase in FRET", "setting": "[5]; reference: before agonist", "result": 24.8, "unit": "%"}]}, {"substance": "PTH1R (parathyroid hormone receptor 1) (from UniProt Q03431) PD1 (cluster 1 S/T to Ala)", "values": [{"measurement": "other: reduction of FRET signal vs WT", "setting": "[5]; reference: wild type, sites S489,S491,S492,S493,S495", "result": 42.1, "unit": "%"}, {"measurement": "percent of reference (% of WT maximum BRET)", "setting": "[1]; sites S489,S491,S492,S493,S495", "result": 80.8}, {"measurement": "other: arrestin3 recovery after photobleaching", "setting": "[2]; sites S489,S491,S492,S493,S495", "result": "same; reference 19.07 ± 0.68–23.94 ± 0.86"}]}, {"substance": "PTH1R (parathyroid hormone receptor 1) (from UniProt Q03431) PD2 (cluster 2 S/T to Ala)", "values": [{"measurement": "percent of reference (% of WT maximum BRET)", "setting": "[1]; sites S501,T503,S504,T506", "result": 66.9}, {"measurement": "other: arrestin3 recovery after photobleaching", "setting": "[2]; sites S501,T503,S504,T506", "result": "weaker; reference 19.07 ± 0.68–23.94 ± 0.86"}]}, {"substance": "PTH1R (parathyroid hormone receptor 1) (from UniProt Q03431) T503A, S504A", "values": [{"measurement": "other: agonist-induced FRET change", "setting": "[5]; reference: wild type, sites T503,S504", "result": "weaker; reference 24.8 ± 12.7"}, {"measurement": "other: arrestin3 recovery after photobleaching", "setting": "[2]; sites T503,S504", "result": "weaker; reference 19.07 ± 0.68–23.94 ± 0.86"}]}]}
